Tests used:
Assay type in all cases: biochemical
[1] = tested on: O=C(c1ccc(Cl)cc1)c1ccccn1; assay: Kinetic analysis of KpADH mutant M6 with CPMK; details: other: M6, NADPH, pH 7.0, 30° C.
Procedure: (§1) In an embodiment of the present disclosure, the mutant includes the substitution of glycine for glutamic acid at position 214 of the amino acid sequence shown in SEQ ID No. 2, the substitution of cysteine for serine at position 237, the substitution of asparaginate for glutamine at position 136, the substitution of glycine for serine at position 196, and the substitution of valine for phenylalanine at position 161, which is named M6.
(§2) Adopting a total reaction system of 200 μL including: 1.0 mM NADPH, 1.0 mM substrate CPMK and sodium phosphate buffer (PBS, 100 mM, pH 7.0), fully and evenly mixing, maintaining at 30° C. for 2 min, adding an appropriate amount of enzyme solution, and detecting the change in light absorption at 340 nm.
(§3) The enzyme activity was calculated by the following formula: Enzyme activity (U)=EW×V×10^3/(6220×1);
(§4) in the formula, EW is the change in absorbance at 340 nm in 1 min; V is the volume of a reaction solution in mL; 6220 is the molar extinction coefficient of NADPH in L/(mol·cm); and 1 is the optical path distance in cm. One activity unit (U) corresponds to the amount of enzyme required to catalyze the oxidation of 1 μmol NADPH per minute under the above conditions.
(§5) A column used for purification was a nickel affinity column HisTrap FF crude, and purification was achieved through affinity chromatography using a histidine tag on recombinant protein. The nickel column was equilibrated with a solution A first, a crude enzyme solution was loaded, a penetrating peak was further eluted off using the solution A, and after equilibrium, a solution B (20 mM sodium phosphate, 500 mM NaCl, and 1000 mM imidazole, pH 7.4) was used for gradient elution to elute off the recombinant protein bound to the nickel column, so as to obtain the recombinant alcohol dehydrogenase mutant. The purified protein was subjected to activity measurement (CPMK as substrate, and NADPH as coenzyme) and SDS-PAGE analysis. […] The purified alcohol dehydrogenase protein was then replaced into a Tris-HCl (100 mM, pH 7.0) buffer using a Hi Trap Desalting column (GE Healthcare).
(§6) The activity of KpADH at different substrate concentrations and coenzyme concentrations was determined, and a double reciprocal curve was made based on the reciprocal of activity and substrate concentration to calculate kinetic parameters.

[2] = tested on: O=C(c1ccc(Cl)cc1)c1ccccn1; assay: Kinetic analysis of KpADH mutant M3 with CPMK; details: other: M3, NADPH, pH 7.0, 30° C.
Procedure: In an embodiment of the present disclosure, the mutant includes the substitution of glycine for glutamic acid at position 214 of the alcohol dehydrogenase with the amino acid sequence shown in SEQ ID No. 2, and the substitution of cysteine for serine at position 237, which is named M3.
as §2, §3, §4, §5, §6

[3] = target: T1, alcohol dehydrogenase KpADH, wild type, SEQ ID No. 2 (Vanderwaltozyma polyspora, UniProt A7TM80); assay: Kinetic analysis of KpADH wild type with CPMK; details: NADPH, pH 7.0, 30° C.
T1 sequence (A7TM80 1-342): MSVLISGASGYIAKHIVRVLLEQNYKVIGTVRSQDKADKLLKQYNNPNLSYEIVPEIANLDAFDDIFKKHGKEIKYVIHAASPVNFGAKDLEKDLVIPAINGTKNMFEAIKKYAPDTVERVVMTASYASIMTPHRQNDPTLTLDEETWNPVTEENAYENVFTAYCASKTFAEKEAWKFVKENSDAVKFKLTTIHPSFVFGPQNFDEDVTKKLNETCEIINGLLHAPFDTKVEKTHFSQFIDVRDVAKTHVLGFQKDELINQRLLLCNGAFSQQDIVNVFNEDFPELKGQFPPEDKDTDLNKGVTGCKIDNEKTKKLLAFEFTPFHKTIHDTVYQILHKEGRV
Procedure: as §2, §3, §4, §5, §6

[4] = target: T2, alcohol dehydrogenase KpADH mutant M5 (E214G/S237C/Q136N/S196G of SEQ ID No. 2) (Vanderwaltozyma polyspora, UniProt A7TM80, E214G/Q136N/S196G/S237C); assay: Kinetic analysis of KpADH mutant M5 with CPMK; details: NADPH, pH 7.0, 30° C.
T2 construct: mutant M5
Procedure: as §1, with “136, and” for “136,”, “196,” for “196, and the substitution of valine for phenylalanine at position 161,”, “M5.” for “M6.”
as §2, §3
as §4, with “conditions. […]” for “conditions.”
as §6

[5] = target: T3, alcohol dehydrogenase KpADH mutant M7 (E214V/T215S of SEQ ID No. 2) (Vanderwaltozyma polyspora, UniProt A7TM80, E214V/T215S); assay: Kinetic analysis of KpADH mutant M7 with CPMK; details: NADPH, pH 7.0, 30° C.
T3 construct: mutant M7
Procedure: In an embodiment of the present disclosure, the mutant includes the substitution of valine for glutamic acid at position 214 of the amino acid sequence shown in SEQ ID No. 2, and the substitution of serine for threonine at position 215, which is named M7.
as §2, §3
as §4, with “conditions. […]” for “conditions.”
as §6

[6] = target: T4, alcohol dehydrogenase KpADH mutant M8 (Q136N/F161V of SEQ ID No. 1) (Vanderwaltozyma polyspora, UniProt A7TM80, F161V/Q136N); assay: Kinetic analysis of KpADH mutant M8 (control example) with CPMK; details: NADPH, pH 7.0, 30° C.
T4 construct: control mutant M8
Procedure: In an embodiment of the present disclosure, the mutant includes the substitution of asparaginate for glutamine at position 136 of alcohol dehydrogenase with an amino acid sequence shown in SEQ ID No. 1, and the substitution of valine for phenylalanine at position 161, which is named M8.
as §2, §3
as §4, with “conditions. […]” for “conditions.”
as §6

[7] = target: T5, alcohol dehydrogenase KpADH mutant M9 (S196G/S237C of SEQ ID No. 1) (Vanderwaltozyma polyspora, UniProt A7TM80, S196G/S237C); assay: Kinetic analysis of KpADH mutant M9 (control example) with CPMK; details: NADPH, pH 7.0, 30° C.
T5 construct: control mutant M9
Procedure: In an embodiment of the present disclosure, the mutant includes the substitution of glycine for serine at position 196 of the alcohol dehydrogenase with the amino acid sequence shown in SEQ ID No. 1, and the substitution of cysteine for serine at position 237, which is named M9.
as §2, §3
as §4, with “conditions. […]” for “conditions.”
as §6

[8] = tested on: O=C(c1ccc(Cl)cc1)c1ccccn1; assay: Kinetic analysis of KpADH mutant M1 with CPMK; details: other: M1, NADPH, pH 7.0, 30° C.
Procedure: In an embodiment of the present disclosure, the mutant includes the substitution of glycine for glutamic acid at position 214 of the alcohol dehydrogenase with the amino acid sequence shown in SEQ ID No. 2, which is named M1.
as §2, §3, §4, §5, §6

[9] = tested on: O=C(c1ccc(Cl)cc1)c1ccccn1; assay: Kinetic analysis of KpADH mutant M2 with CPMK; details: other: M2, NADPH, pH 7.0, 30° C.
Procedure: In an embodiment of the present disclosure, the mutant includes the substitution of valine for glutamic acid at position 214 of the alcohol dehydrogenase with the amino acid sequence shown in SEQ ID No. 2, which is named M2.
as §2, §3, §4, §5, §6

[10] = tested on: O=C(c1ccc(Cl)cc1)c1ccccn1; assay: Kinetic analysis of KpADH mutant M4 with CPMK; details: other: M4, NADPH, pH 7.0, 30° C.
Procedure: In an embodiment of the present disclosure, the mutant includes the substitution of glycine for glutamic acid at position 214 of the amino acid sequence shown in SEQ ID No. 2, the substitution of cysteine for serine at position 237, and the substitution of asparaginate for glutamine at position 136, which is named M4.
as §2, §3, §4, §5, §6

## alcohol dehydrogenase KpADH mutant M6 (E214G/S237C/Q136N/S196G/F161V of SEQ ID No. 2) (Vanderwaltozyma polyspora DSM 70294; E214G/F161V/Q136N/S196G/S237C)
[1]
  Km: 1120 µM
  Vmax: 25.2 µmol/min/mg
  kcat: 20.1 s⁻¹
  kcat/Km: 17900 M⁻¹ s⁻¹

## alcohol dehydrogenase KpADH mutant M3 (E214G/S237C of SEQ ID No. 2) (Vanderwaltozyma polyspora DSM 70294; E214G/S237C)
[2]
  Km: 632 µM
  Vmax: 9.32 µmol/min/mg
  kcat: 6.16 s⁻¹
  kcat/Km: 9740 M⁻¹ s⁻¹

## O=C(c1ccc(Cl)cc1)c1ccccn1 [CPMK, (4-chlorophenyl)-(pyridin-2-yl)-methanone]
[3]
  Kcat: 11.8 s⁻¹
  Km: 410 µM
  Vmax: 17.9 µmol/min/mg
[4]
  Kcat: 17.0 s⁻¹
  Vmax: 21.3 µmol/min/mg
[5]
  Kcat: 14.2 s⁻¹
  Vmax: 21.3 µmol/min/mg
[6]
  Kcat: 14.8 s⁻¹
  Vmax: 22.3 µmol/min/mg
[7]
  Kcat: 17.6 s⁻¹
  Vmax: 26.5 µmol/min/mg

## alcohol dehydrogenase KpADH mutant M1 (E214G of SEQ ID No. 2) (Vanderwaltozyma polyspora DSM 70294; E214G)
[8]
  Km: 520 µM
  Vmax: 11.1 µmol/min/mg
  kcat: 7.32 s⁻¹
  kcat/Km: 14100 M⁻¹ s⁻¹

## alcohol dehydrogenase KpADH mutant M2 (E214V of SEQ ID No. 2) (Vanderwaltozyma polyspora DSM 70294; E214V)
[9]
  Km: 574 µM
  Vmax: 17.5 µmol/min/mg
  kcat: 11.7 s⁻¹
  kcat/Km: 14200 M⁻¹ s⁻¹

## alcohol dehydrogenase KpADH mutant M4 (E214G/S237C/Q136N of SEQ ID No. 2) (Vanderwaltozyma polyspora DSM 70294; E214G/Q136N/S237C)
[10]
  Km: 861 µM
  Vmax: 10.2 µmol/min/mg
  kcat: 6.76 s⁻¹
  kcat/Km: 7850 M⁻¹ s⁻¹
